Data on 4 molecules can be found in PMC9486808 (ACS Chemical Biology, 2022).

No end group written: not given here.

B1: Fluorescein-labeled macrocyclic peptide L4 (peptide)
chain: YRWVWTSFFSEPYFVVC
modifications: thioether (positions not given here); not fully specified (N-terminus, bridges); also: fluorescein (FAM) label, position not given here
B2: Fluorescein-labeled macrocyclic peptide L2 (peptide)
chain: YWHKNKYVLTYSCLFAA
modifications: thioether (positions not given here); not fully specified (N-terminus, bridges); also: fluorescein (FAM) label, position not given here
B3: Fluorescein-labeled macrocyclic peptide S3 (peptide)
chain: YLKIYWSKIHGLVSEWC
modifications: thioether (positions not given here); not fully specified (N-terminus, bridges); also: fluorescein (FAM) label, position not given here
B4: Fluorescein-labeled macrocyclic peptide S5 (peptide)
chain: YVLFRWDHGTLATHWVC
modifications: thioether (positions not given here); not fully specified (N-terminus, bridges); also: fluorescein (FAM) label, position not given here

Broadly, the Kd is the constant that tells how readily two partners part at equilibrium.

For this experiment, the target named is Recombinant soluble trimeric H1 HA ectodomain of A/California/04/2009 (H1N1) (Influenza A virus A/California/04/2009 …). The experiment can be described thus: fluorescence polarisation. Conditions: both partners purified. (Polarisation of emitted light reports the rotation of a fluorescent probe.)
Take B1: the Kd was no more than 1 nM.

On to B2, for which the equilibrium dissociation constant (Kd) was 2.4 nM.

On to B3, for which the dissociation constant (Kd) is no more than 1 nM.

Turning to B4, the Kd is no more than 1 nM.
